From patent US20180155399A1 come the findings set out here.

The target in experiment [1] is T1, human Tissue Factor Pathway Inhibitor-1α (TFPI-1α) (human), P10646. As to the kind of experiment: competition. To be noted: modification not given.
The target of experiment [2] is T2, murine TFPI 1-160 (mouse), O54819.
T2 chain: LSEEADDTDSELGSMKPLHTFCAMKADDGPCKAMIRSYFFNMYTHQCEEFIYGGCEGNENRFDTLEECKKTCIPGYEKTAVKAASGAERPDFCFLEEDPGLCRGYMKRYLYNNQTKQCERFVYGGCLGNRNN
As to the kind of experiment: cell-based or functional assay.

Experiment [3] concerns the target T1, human Tissue Factor Pathway …. To be noted: modification not given.

T1 sequence (P10646 29-304): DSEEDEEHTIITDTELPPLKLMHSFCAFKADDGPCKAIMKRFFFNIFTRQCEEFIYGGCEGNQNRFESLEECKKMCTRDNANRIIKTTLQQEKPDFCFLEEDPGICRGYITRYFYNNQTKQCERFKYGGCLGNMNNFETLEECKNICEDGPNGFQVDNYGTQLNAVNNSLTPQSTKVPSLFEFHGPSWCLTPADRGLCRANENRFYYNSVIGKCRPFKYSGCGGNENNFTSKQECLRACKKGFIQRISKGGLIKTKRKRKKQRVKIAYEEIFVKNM

B1: JBT0579 (peptide)
chain: FQSKKNVFVFGYFEFLRAKL
The IC50 is the point on the concentration scale where inhibition reaches its midpoint. The molecule B1 had a 50% inhibitory concentration (IC50) in experiment [1] of over 5000 nM.

B2: JBT0590 (peptide)
chain: FQSKKNDFVFGYFERLRAKL
B2 yielded an IC50 in experiment [1] of over 5000 nM.

B3: JBT0573 (peptide)
chain: FQSKFNVFVFGYFERLRAKL
For B3, the half-inhibitory concentration (IC50) in experiment [1] worked out at 1370 nM.

B4: JBT0572 (peptide)
chain: FQSFKNVFVFGYFERLRAKL
For B4, the IC50 in experiment [1] was over 5000 nM.

B5: JBT0582 (peptide)
chain: FQSKKNVFVFGYFERLRFKL
For the molecule B5, the IC50 in experiment [1] was over 5000 nM.

B6: JBT0603 (peptide)
chain: FQLKKNVFVFGYFERLRAKL
The molecule B6 yielded an IC50 in experiment [1] of over 5000 nM.

B7: JBT1837 (peptide)
peptide: SYYKWHCAMRDMKGTMTCVWVKF
modifications: not checked
In experiment [2], B7 had an FXa inhibition assay of over 10 µM.

B8: JBT0606 (peptide)
chain: FQSKKLVFVFGYFERLRAKL
B8 gave an IC50 in experiment [1] of over 5000 nM.

B9: JBT0520 (peptide)
chain: FQSKGDVFVFGYFERLRAKL
B9 returned an IC50 in experiment [1] of 188 nM.

B10: JBT0581 (peptide)
chain: FQSKKNVFVFGYFERLFAKL
In experiment [1], B10 yielded an IC50 of over 5000 nM.

B11: JBT0577 (peptide)
chain: FQSKKNVFVFGFFERLRAKL
With B11, the IC50 in experiment [1] is over 5000 nM.

B12: JBT0580 (peptide)
chain: FQSKKNVFVFGYFERFRAKL
As for B12, the IC50 in experiment [1] is over 5000 nM.

B13: JBT0602 (peptide)
chain: FLSKKNVFVFGYFERLRAKL
Consider B13, for which, in experiment [1], the IC50 was over 5000 nM.

B14: JBT0588 (peptide)
chain: FQSDKNVFVFGYFERLRAKL
In experiment [1], B14 displayed a half-maximal inhibitory concentration (IC50) of over 5000 nM.

B15: JBT0720 (peptide)
chain: FQSKGNVFVTGYFARLRAKL
For orientation: EC50 means the concentration giving half of the maximal effect. Low values mean greater potency, high ones weaker potency. B15 returned a 50% inhibitory concentration (IC50) in experiment [1] of 27 nM. The molecule also had a 50% effective concentration (EC50) in experiment [3] of 220 nM.

B16: JBT0597 (peptide)
chain: FQSKKNVFVFGYFERDRAKL
In turn, B16 yielded an IC50 in experiment [1] of over 5000 nM.

B17: JBT0525 (peptide)
chain: FQSKGNVFVFAYFERLRAKL
The molecule B17 returned an IC50 in experiment [1] of over 5000 nM.

B18: JBT0591 (peptide)
chain: FQSKKNVDVFGYFERLRAKL
For the molecule B18, the IC50 in experiment [1] is over 5000 nM.

B19: JBT0598 (peptide)
chain: FQSKKNVFVFGYFERLDAKL
In experiment [1], B19 showed a concentration for half-maximal inhibition (IC50) of over 5000 nM.

B20: JBT0604 (peptide)
chain: FQSLKNVFVFGYFERLRAKL
Regarding B20, the half-inhibitory concentration (IC50) in experiment [1] was over 1670 nM.

B21: JBT0806 (peptide)
chain: FQSKGNVFVAGYFARLRAKL
The molecule B21 gave an IC50 in experiment [1] of 42 nM.

B22: JBT0605 (peptide)
chain: FQSKLNVFVFGYFERLRAKL
Regarding B22, the concentration for half-maximal inhibition (IC50) in experiment [1] was over 1670 nM.

B23: JBT0594 (peptide)
chain: FQSKKNVFVFGDFERLRAKL
In the case of B23, the concentration for half-maximal inhibition (IC50) in experiment [1] was over 5000 nM.

B24: JBT0574 (peptide)
chain: FQSKKFVFVFGYFERLRAKL
Consider B24, for which, in experiment [1], the 50% inhibitory concentration (IC50) is over 5000 nM.

B25: JBT0592 (peptide)
chain: FQSKKNVFDFGYFERLRAKL
Consider B25, for which the half-maximal inhibitory concentration (IC50) in experiment [1] is over 5000 nM.

B26: JBT0571 (peptide)
chain: FQFKKNVFVFGYFERLRAKL
In turn, B26 yielded a half-maximal inhibitory concentration (IC50) in experiment [1] of over 5000 nM.

B27: JBT0497 (peptide)
chain: AQSKGNVFVFGYFERLRAKL
B27 displayed an IC50 in experiment [1] of 100 nM.

B28: JBT0570 (peptide)
chain: FFSKKNVFVFGYFERLRAKL
On to B28, for which, in experiment [1], the 50% inhibitory concentration (IC50) is over 5000 nM.

B29: JBT0516 (peptide)
chain: FESKGNVFVFGYFERLRAKL
In the case of B29, the IC50 in experiment [1] came out at 1190 nM.

B30: JBT0783 (peptide)
chain: LKARLREFYGFVFVNKKSQF
For the molecule B30, the IC50 in experiment [1] was over 1670 nM.

B31: JBT1278 (peptide)
chain: FQSVGNVFVDGYFERLSAKL
In turn, B31 had a half-maximal inhibitory concentration (IC50) in experiment [1] of 73 nM.

B32: JBT0586 (peptide)
chain: FDSKKNVFVFGYFERLRAKL
For B32, in experiment [1], the half-inhibitory concentration (IC50) is over 1670 nM.

B33: JBT0583 (peptide)
chain: FQSKKNVFVFGYFERLRAFL
In experiment [1], B33 yielded an IC50 of over 5000 nM.

B34: JBT0487 (peptide)
chain: FQSKNNVFVHGYFERLRAKL
The molecule B34 gave an IC50 in experiment [1] of 40 nM.

B35: JBT0576 (peptide)
chain: FQSKKNVFVFFYFERLRAKL
On to B35, for which, in experiment [1], the half-inhibitory concentration (IC50) was over 1670 nM.

B36: JBT0528 (peptide)
chain: FQSKGNVFVFGYFDRLRAKL
Take B36: the IC50 in experiment [1] stood at 107 nM.
